Measured values: paper PMC10345191 (NPJ Vaccines, 2023)

Key:
[1] = molecular target: T1, ConM SOSIP soluble gp140 Env trimer, unmodified (GMP) (HIV-1 (group M consensus)); assay: BLI; details: both partners purified
T1 construct: copies: 3 + 3

[2] = molecular target: T2, EDC cross-linked ConM SOSIP soluble gp140 Env trimer (GMP) (HIV-1 (group M consensus)); assay: BLI; details: both partners purified
T2 construct: copies: 3 + 3

B1: PGT122 Fab (Fab, V domains shown)
VH: QVHLQESGPGLVKPSETLSLTCNVSGTLVRDNYWSWIRQPLGKQPEWIGYVHDSGDTNYNPSLKSRVHLSLDKSKNLVSLRLTGVTAADSAIYYCATTKHGRRIYGVVAFKEWFTYFYMDVWGKGTSVTVSS
VL: APTFVSVAPGQTARITCGEESLGSRSVIWYQQRPGQAPSLIIYNNNDRPSGIPDRFSGSPGSTFGTTATLTITSVEAGDEADYYCHIWDSRRPTNWVFGEGTTLIVL
notes: source: Freestyle 293F cells, serum-free, purified (HiTrap KappaSelect, Mono S)
Binder B1 has a Kd [1] of less than 1 pM, a koff [1] of less than 1e-07 s⁻¹ and a Kd [2] of less than 1 pM. For the same binder, the koff [2] was less than 1e-07 s⁻¹.
